Laboratory results from paper PMC4963197, “Phosphorylation acts positively and negatively to regulate MRTF-A subcellular localisation and activity” (eLife, 2016).

Molecular target: G-actin, P68135
Assay: size exclusion chromatography
Details: chain shown with the change

- other: actins (apparent stoichiometry of G-actin binding): 2.3
B1: MRTF-A(67–199) L74A; L78A; S98D (protein)
chain: LSERKNVAQLKAQQRRTREELVSQGIMPPLKDPAAFHEQRRSLERARTEDYLKRKIRSRPERAELVRMHILEETSAEPSLQAKQLKLKRARLADDLNEKIAQRPGPMELVEKNILPVESSLKEAIIVGQVNYP
